Experimental data published in patent US20230193255.

Key:
[1] = target: Variant TEV cleavage site ENVYFQS
[2] = target: TEV cleavage site ENLYFQS
[3] = target: Variant TEV cleavage site ENLFFQS

B1: TEV protease S219V mutant (protein)
chain: ESLFKGPRDYNPISSTICHLTNESDGHTTSLYGIGFGPFIITNKHLFRRNNGTLLVQSLHGVFKVKNTTTLQQHLIDGRDMIIIRMPKDFPPFPQKLKFREPQREERICLVTTNFQTKSMSSMVSDTSCTFPSSDGIFWKHWIQTKDGQCGSPLVSTRDGFIVGIHSASNFTNTNNYFTSVPKNFMELLTNQEAQQWVSGWRLNADSVLWGGHKVFMVKPEEPFQPVKEATQLMN
[1]
  efficiency of cleavage by TEV at the TCS: found to exhibit 1% efficiency
[2]
  efficiency of cleavage by TEV at the TCS: considered to be 100% efficient
[3]
  efficiency of cleavage by TEV at the TCS: found to exhibit 10% efficiency
